The text below walks through data of patent US20050095615.

The series deals with His6/LUMIO tag/MBP protein expressed from pET160-GW/MBP [MBP: P0AEX9].

B1: TEV protease (protein)
chain: GESLFKGPRDYNPISSTICHLTNESDGHTTSLYGIGFGPFIITNKHLFRRNNGTLLVQSLHGVFKVKNTTTLQQHLIDGRDMIIIRMPKDFPPFPQKLKFREPQREERICLVTTNFQTKSMSSMVSDTSCTFPSSDGIFWKHWIQTKDGQCGSPLVSTRDGFIVGIHSASNFTNTNNYFTSVPKNFMELLTNQEAQQWVSGWRLNADSVLWGGHKVFMSKPEEPFQPVKEATQLMNELVYSQ
Turning to B1, the “cleavage by TEV protease” value is “The TEV protease efficiently cleaves the N-terminal sequences from partially purified protein” and the “digestion with TEV protease analyzed by SDS-PAGE” value is “The results demonstrated that the pET160-DEST vector can encode a functional TEV cleavage site”.
